Article doi:10.1101/2025.11.27.691040 (bioRxiv, 2025)

Molecular target: T1, AtCKA1 (residues 76-409) with C-terminal 6xHis tag (Arabidopsis thaliana, UniProt Q08467 76-409)
T1 sequence (looked up): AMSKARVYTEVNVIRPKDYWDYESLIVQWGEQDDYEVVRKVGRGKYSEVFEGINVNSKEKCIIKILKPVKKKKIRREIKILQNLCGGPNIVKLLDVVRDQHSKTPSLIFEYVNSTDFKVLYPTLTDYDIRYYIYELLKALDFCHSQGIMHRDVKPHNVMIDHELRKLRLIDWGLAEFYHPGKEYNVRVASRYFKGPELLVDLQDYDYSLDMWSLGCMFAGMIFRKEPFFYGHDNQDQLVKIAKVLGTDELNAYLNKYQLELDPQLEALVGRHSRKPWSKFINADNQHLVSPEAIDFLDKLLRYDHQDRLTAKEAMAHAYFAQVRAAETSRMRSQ
Experiment: SEC-MALS

- stoichiometry N: 1 β per α (2:2, α2β2)
B1: AtCKB1 (residues 95-287), untagged (domain or fragment, Arabidopsis thaliana, UniProt P40228 95-287, looked up)
chain: DGEDTSWISWFCNLRGNEFFCEVDDDYIQDDFNLCGLSSLVPYYEYALDLILDVESSQGEMFTEEQNELIESAAEMLYGLIHARYILTSKGLAAMLDKYKNYDFGRCPRVYCCGQPCLPVGQSDLPRSSTVKIYCPKCEDIYYPRSKYQGNIDGAYFGTTFPHLFLMTYGHLKPAKATQNYVQRVFGFKLHKP
